{"source": "patent EP2985295A1", "about": "(Calypso Biotech SA, dated 2016)", "binders": {"B1": {"name": "G03-VH-GL / G06-VL-GL1 (antibody, V domains shown)", "VH": "EVQLVQSGAEVKKPGASVKVSCKASGYTFTSYGISWVRQAPGQGLEWMGWISAYNGNTNYAQKLQGRVTMTTDTSTSTAYMELRSLRSDDTAVYYCARDYYGMDVWGQGTTVTVSS", "VL": "QAVLTQPPSASGTPGQRVTISCSGSTFNIGSNTVNWYQQLPGTAPKLLIYSDSHRPSGVPDRFSGSNSWNTASLAISGLQSEDEADYYCQAWDSSAVVFGGGTKVTVLG"}, "B2": {"name": "G03-VH-GL-V1-V9 / G06-VL-GL1 (antibody, V domains shown)", "VH": "B1 VH with W50Y, G56A", "VL": "B1 VL"}, "B3": {"name": "G03-VH-GL-V1 / G06-VL-GL1 (antibody, V domains shown)", "VH": "B1 VH with W50Y", "VL": "B1 VL"}}, "assay_in_all_cases": "cell-based or functional assay", "key": {"[1]": {"target": "rat proMMP9 (rat, UniProt P50282 20-708)", "sequence (P50282 20-708)": "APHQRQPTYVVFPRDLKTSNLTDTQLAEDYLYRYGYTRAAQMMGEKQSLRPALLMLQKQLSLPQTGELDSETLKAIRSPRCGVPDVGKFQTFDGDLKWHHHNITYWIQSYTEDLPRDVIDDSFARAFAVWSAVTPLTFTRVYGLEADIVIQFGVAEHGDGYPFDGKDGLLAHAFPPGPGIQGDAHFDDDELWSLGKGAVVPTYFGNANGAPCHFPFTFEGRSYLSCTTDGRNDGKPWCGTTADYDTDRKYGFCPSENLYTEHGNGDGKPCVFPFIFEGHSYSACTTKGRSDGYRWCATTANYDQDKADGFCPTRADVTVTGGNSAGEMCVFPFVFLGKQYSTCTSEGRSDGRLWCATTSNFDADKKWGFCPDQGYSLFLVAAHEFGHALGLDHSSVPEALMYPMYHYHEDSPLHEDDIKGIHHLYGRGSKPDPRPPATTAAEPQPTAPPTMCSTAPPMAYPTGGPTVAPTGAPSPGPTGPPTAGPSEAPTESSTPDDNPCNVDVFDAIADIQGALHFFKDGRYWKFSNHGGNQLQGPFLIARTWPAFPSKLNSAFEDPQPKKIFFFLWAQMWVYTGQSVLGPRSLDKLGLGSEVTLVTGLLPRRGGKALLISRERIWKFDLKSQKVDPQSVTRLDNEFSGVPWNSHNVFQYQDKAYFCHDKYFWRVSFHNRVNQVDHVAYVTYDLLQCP"}, "[2]": {"target": "mouse proMMP9 (mouse, UniProt P41245 20-730)", "sequence (P41245 20-730)": "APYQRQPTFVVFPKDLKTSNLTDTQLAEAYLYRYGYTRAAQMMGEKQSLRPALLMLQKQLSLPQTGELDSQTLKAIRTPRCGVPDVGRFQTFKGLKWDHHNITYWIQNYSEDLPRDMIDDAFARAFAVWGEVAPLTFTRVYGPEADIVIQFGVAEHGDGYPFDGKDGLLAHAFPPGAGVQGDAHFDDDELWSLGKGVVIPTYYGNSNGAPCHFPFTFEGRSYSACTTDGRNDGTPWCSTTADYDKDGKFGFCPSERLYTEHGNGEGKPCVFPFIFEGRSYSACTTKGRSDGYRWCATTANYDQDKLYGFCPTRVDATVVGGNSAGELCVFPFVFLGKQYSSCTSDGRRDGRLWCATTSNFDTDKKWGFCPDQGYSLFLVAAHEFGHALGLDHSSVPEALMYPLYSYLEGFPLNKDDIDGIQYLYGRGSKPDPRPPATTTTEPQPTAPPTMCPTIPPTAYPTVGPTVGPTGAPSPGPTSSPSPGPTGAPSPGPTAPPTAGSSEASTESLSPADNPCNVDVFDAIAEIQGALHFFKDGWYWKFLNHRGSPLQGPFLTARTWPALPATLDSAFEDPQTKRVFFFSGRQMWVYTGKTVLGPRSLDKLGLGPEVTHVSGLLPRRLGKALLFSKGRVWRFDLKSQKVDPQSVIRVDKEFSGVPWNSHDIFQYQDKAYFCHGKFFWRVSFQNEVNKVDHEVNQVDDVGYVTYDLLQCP"}, "[3]": {"target": "Human MMP9 (i.e. activated MMP9) (human, UniProt P14780 107-707)", "sequence (P14780 107-707)": "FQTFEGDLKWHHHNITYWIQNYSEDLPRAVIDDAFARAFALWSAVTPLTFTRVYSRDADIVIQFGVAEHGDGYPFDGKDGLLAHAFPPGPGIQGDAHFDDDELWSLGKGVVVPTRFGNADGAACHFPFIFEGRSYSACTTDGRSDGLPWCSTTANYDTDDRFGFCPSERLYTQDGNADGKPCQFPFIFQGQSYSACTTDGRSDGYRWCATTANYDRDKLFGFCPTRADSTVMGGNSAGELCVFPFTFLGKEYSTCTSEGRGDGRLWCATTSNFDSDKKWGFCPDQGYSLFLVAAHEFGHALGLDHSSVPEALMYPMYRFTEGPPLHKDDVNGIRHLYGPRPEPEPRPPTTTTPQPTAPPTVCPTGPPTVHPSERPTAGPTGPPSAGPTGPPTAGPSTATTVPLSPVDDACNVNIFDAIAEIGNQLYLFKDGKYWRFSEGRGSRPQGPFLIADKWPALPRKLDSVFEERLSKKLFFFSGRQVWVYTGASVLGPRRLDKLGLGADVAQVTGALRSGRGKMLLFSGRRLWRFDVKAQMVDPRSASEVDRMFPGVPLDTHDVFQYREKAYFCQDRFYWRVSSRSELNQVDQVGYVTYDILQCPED"}, "[4]": {"target": "Human proMMP9 (human, UniProt P14780 20-707)", "sequence (P14780 20-707)": "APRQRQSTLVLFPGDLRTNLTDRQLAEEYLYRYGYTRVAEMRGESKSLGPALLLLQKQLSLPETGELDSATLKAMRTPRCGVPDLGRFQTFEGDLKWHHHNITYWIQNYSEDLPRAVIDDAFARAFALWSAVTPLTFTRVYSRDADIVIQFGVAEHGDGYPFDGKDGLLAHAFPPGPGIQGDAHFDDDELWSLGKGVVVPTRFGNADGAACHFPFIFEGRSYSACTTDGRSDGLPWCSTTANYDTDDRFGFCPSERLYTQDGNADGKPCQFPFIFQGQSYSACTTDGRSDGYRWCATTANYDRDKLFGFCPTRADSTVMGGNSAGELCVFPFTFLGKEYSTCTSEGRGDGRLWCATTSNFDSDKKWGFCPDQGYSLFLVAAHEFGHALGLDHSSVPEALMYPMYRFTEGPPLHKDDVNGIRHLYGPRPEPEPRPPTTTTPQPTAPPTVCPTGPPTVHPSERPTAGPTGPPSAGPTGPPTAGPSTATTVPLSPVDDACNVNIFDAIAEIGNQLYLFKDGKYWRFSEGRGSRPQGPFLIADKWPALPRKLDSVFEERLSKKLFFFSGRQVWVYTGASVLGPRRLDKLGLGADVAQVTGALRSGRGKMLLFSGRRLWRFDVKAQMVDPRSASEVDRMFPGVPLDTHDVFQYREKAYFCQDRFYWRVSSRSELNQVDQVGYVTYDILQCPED"}, "[5]": {"target": "Cyno proMMP9 (Cynomologus monkey)"}}, "note": "Where a chain is given by its changes, count along the chain named.", "data": [{"binder": "B1", "values": [{"measurement": "Efficiency, neutralization of processing of rat MMP9 and/or its catalytic activity on gelatin (MMP3/MMP9 assay)", "setting": "[1]", "value": 100, "unit": "%"}, {"measurement": "IC50 (nM), neutralization of processing of rat MMP9 and/or its catalytic activity on gelatin (MMP3/MMP9 assay)", "setting": "[1]", "value": 64.7, "unit": "nM"}, {"measurement": "Efficiency, neutralization of processing of mouse MMP9 and/or its catalytic activity on gelatin (MMP3/MMP9 assay)", "setting": "[2]", "value": 30, "unit": "%"}, {"measurement": "IC50 (nM), neutralization of processing of mouse MMP9 and/or its catalytic activity on gelatin (MMP3/MMP9 assay)", "setting": "[2]", "value": 151, "unit": "nM"}, {"measurement": "Efficiency, neutralization of catalytic activity on DQ-gelatin (MMP9 assay)", "setting": "[3]", "value": 50, "unit": "%"}, {"measurement": "IC50 (nM), neutralization of catalytic activity on DQ-gelatin (MMP9 assay)", "setting": "[3]", "value": 0.13, "unit": "nM"}, {"measurement": "Efficiency, neutralization of proMMP9 processing and/or downstream catalytic activity on DQ-gelatin (MMP3/MMP9 assay)", "setting": "[4]", "value": 100, "unit": "%"}, {"measurement": "IC50 (nM), neutralization of proMMP9 processing and/or downstream catalytic activity on DQ-gelatin (MMP3/MMP9 assay)", "setting": "[4]", "value": 0.21, "unit": "nM"}, {"measurement": "Efficiency, neutralization of processing of cyno MMP9 and/or its catalytic activity on gelatin (MMP3/MMP9 assay)", "setting": "[5]", "value": 100, "unit": "%"}, {"measurement": "IC50 (nM), neutralization of processing of cyno MMP9 and/or its catalytic activity on gelatin (MMP3/MMP9 assay)", "setting": "[5]", "value": 0.04, "unit": "nM"}]}, {"binder": "B2", "values": [{"measurement": "Efficiency, neutralization of processing of rat MMP9 and/or its catalytic activity on gelatin (MMP3/MMP9 assay)", "setting": "[1]", "value": 100, "unit": "%"}, {"measurement": "IC50 (nM), neutralization of processing of rat MMP9 and/or its catalytic activity on gelatin (MMP3/MMP9 assay)", "setting": "[1]", "value": 93.6, "unit": "nM"}, {"measurement": "Efficiency, neutralization of processing of mouse MMP9 and/or its catalytic activity on gelatin (MMP3/MMP9 assay)", "setting": "[2]", "value": 25, "unit": "%"}, {"measurement": "IC50 (nM), neutralization of processing of mouse MMP9 and/or its catalytic activity on gelatin (MMP3/MMP9 assay)", "setting": "[2]", "value": 12.6, "unit": "nM"}, {"measurement": "Efficiency, neutralization of catalytic activity on DQ-gelatin (MMP9 assay)", "setting": "[3]", "value": 50, "unit": "%"}, {"measurement": "IC50 (nM), neutralization of catalytic activity on DQ-gelatin (MMP9 assay)", "setting": "[3]", "value": 0.11, "unit": "nM"}, {"measurement": "Efficiency, neutralization of proMMP9 processing and/or downstream catalytic activity on DQ-gelatin (MMP3/MMP9 assay)", "setting": "[4]", "value": 100, "unit": "%"}, {"measurement": "IC50 (nM), neutralization of proMMP9 processing and/or downstream catalytic activity on DQ-gelatin (MMP3/MMP9 assay)", "setting": "[4]", "value": 0.21, "unit": "nM"}, {"measurement": "Efficiency, neutralization of processing of cyno MMP9 and/or its catalytic activity on gelatin (MMP3/MMP9 assay)", "setting": "[5]", "value": 100, "unit": "%"}, {"measurement": "IC50 (nM), neutralization of processing of cyno MMP9 and/or its catalytic activity on gelatin (MMP3/MMP9 assay)", "setting": "[5]", "value": 0.14, "unit": "nM"}]}, {"binder": "B3", "values": [{"measurement": "Efficiency, neutralization of processing of rat MMP9 and/or its catalytic activity on gelatin (MMP3/MMP9 assay)", "setting": "[1]", "value": 100, "unit": "%"}, {"measurement": "IC50 (nM), neutralization of processing of rat MMP9 and/or its catalytic activity on gelatin (MMP3/MMP9 assay)", "setting": "[1]", "value": 19, "unit": "nM"}, {"measurement": "Efficiency, neutralization of processing of mouse MMP9 and/or its catalytic activity on gelatin (MMP3/MMP9 assay)", "setting": "[2]", "value": 25, "unit": "%"}, {"measurement": "IC50 (nM), neutralization of processing of mouse MMP9 and/or its catalytic activity on gelatin (MMP3/MMP9 assay)", "setting": "[2]", "value": 16.4, "unit": "nM"}, {"measurement": "Efficiency, neutralization of catalytic activity on DQ-gelatin (MMP9 assay)", "setting": "[3]", "value": 50, "unit": "%"}, {"measurement": "IC50 (nM), neutralization of catalytic activity on DQ-gelatin (MMP9 assay)", "setting": "[3]", "value": 0.06, "unit": "nM"}, {"measurement": "Efficiency, neutralization of proMMP9 processing and/or downstream catalytic activity on DQ-gelatin (MMP3/MMP9 assay)", "setting": "[4]", "value": 100, "unit": "%"}, {"measurement": "IC50 (nM), neutralization of proMMP9 processing and/or downstream catalytic activity on DQ-gelatin (MMP3/MMP9 assay)", "setting": "[4]", "value": 0.19, "unit": "nM"}, {"measurement": "Efficiency, neutralization of processing of cyno MMP9 and/or its catalytic activity on gelatin (MMP3/MMP9 assay)", "setting": "[5]", "value": 100, "unit": "%"}, {"measurement": "IC50 (nM), neutralization of processing of cyno MMP9 and/or its catalytic activity on gelatin (MMP3/MMP9 assay)", "setting": "[5]", "value": 0.03, "unit": "nM"}]}]}
